Measured values from patent US20250145711A1 (Janssen / Centocor, published 2025).

What was measured:
[1] = molecular target: T1, TRCW5 antigen (CD3δε-Fc-Avi) (biotinylated (site not stated)); test: ELISA, E. coli scFv on biotinylated TRCW5
T1 construct: also called recombinant CD3
Method: Briefly, DNA was transformed into an E. coli expression vector to generate scFv molecules having a C-terminal HA-tag, and cells were plated on 2×YT/Carb/2% Glucose grown overnight at 37 C. Colonies were picked and transferred 50 ul of overnight growth cultures to new plates containing 500 ul of 2×YT/Carb/0.1% Glucose, grown for 6-7 hr, and combined with 50 ul 2×YT medium containing 1×carbenicillin & 12×IPTG. Cultures were incubated with shaking ˜600 RPM 30° C. overnight. Streptavidin coated plates were bound with 50 μL of biotinylated TRCW5 antigen (CD3δε-Fc-Avi, SEQ ID NO: 39) at the concentrations indicated in the ELISA graph for 45 min at room temperature with shaking (FIG. 1, FIG. 3, FIG. 4) followed by washing 3× with 1×TBST. Plates were blocked with 200 ul 3% Milk in 1×TBST for ˜45 mins at room temperature followed by washing 3× with 1×TBST. E. coli cultures were harvested by centrifugation at […] for 10 mins 4° C. and 50 μL of supernatant was transferred into CD3-coated plates followed by incubation at 4 C for 45 min. Plates were washed 3× with 1×TBST. Bound scFv was detected with Chicken Polyclonal Anti-HA-HRP (ab1190) [1:1000] for ˜45 mins RT and luminescence detected with chemi-luminescent substrate.

[2] = molecular target: T1, TRCW5 antigen (CD3δε-Fc-Avi); test: ELISA after heat

T1 sequence (chain, as listed by the source mutant limits assumed): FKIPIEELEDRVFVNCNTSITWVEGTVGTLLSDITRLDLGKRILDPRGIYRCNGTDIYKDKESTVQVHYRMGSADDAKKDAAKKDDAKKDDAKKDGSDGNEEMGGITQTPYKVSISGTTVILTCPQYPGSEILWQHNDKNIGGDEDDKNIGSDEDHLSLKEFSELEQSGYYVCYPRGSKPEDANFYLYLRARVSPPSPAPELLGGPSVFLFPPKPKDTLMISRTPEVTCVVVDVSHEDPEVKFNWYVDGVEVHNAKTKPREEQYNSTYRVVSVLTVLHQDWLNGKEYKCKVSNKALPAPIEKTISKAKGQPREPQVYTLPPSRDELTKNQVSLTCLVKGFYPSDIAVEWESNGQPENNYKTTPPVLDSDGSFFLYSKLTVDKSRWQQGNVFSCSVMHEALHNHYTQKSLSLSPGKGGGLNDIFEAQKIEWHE

| Binder | EC50 [1] | % Retained 55° C. [2] | % Retained 60° C. [2] | % Retained 65° C. [2] |
| --- | --- | --- | --- | --- |
| CD3B1135 (scFv) scFv: EIVLTQSPATLSLSPGERATLSCSASSSVSYMNWYQQKPGTSPRRLIYDSSKLASGIPARFSGSGSGRDYTLTISSLEPEDFAVYYCQQWSRNPPTFGGGTKVEIKGGSEGKSSGSGSESKSTGGSQVQLVQSGAEVKKPGSSVKVSCKASGYTFTRSTMHWVRQAPGQGLEWMGYINPSSAYTNYNQKFQGRVTLTADKSTSTAYMELSSLRSEDTAVYYCARPQVHYDYNGFPYWGQGTLVTVSS | 1040 pM | – | – | – |
| CD3B1131 (scFv, also called CD381131) scFv: EVQLVQSGAEVKKPGESLRISCKASGYTFTRSTMHWVRQMPGKGLEWMGYINPSSAYTNYNPSFQGHVTLSADKSISTAYLQWSSLKASDTAMYYCARPQVHYDYNGFPYWGQGTLVTVSSGGSEGKSSGSGSESKSTGGSDIQLTQSPSSLSASVGDRVTITCSASSSVSYMNWYQQKPGTSPKRLIYDSSKLASGVPSRFSGSGSGTDYTLTISSLQPEDFATYYCQQWSRNPPTFGGGTKVEIK | 1140 pM | – | – | – |
| CD3B1132 (scFv) scFv: EVQLVQSGAEVKKPGESLRISCKASGYTFTRSTMHWVRQMPGKGLEWMGYINPSSAYTNYNPSFQGHVTLSADKSISTAYLQWSSLKASDTAMYYCARPQVHYDYNGFPYWGQGTLVTVSSGGSEGKSSGSGSESKSTGGSEIVLTQSPATLSLSPGERATLSCSASSSVSYMNWYQQKPGTSPRRLIYDSSKLASGIPARFSGSGSGRDYTLTISSLEPEDFAVYYCQQWSRNPPTFGGGTKVEIK | ~1100 pM | – | – | – |
| CD3B1133 (scFv) scFv: DIQLTQSPSSLSASVGDRVTITCSASSSVSYMNWYQQKPGTSPKRLIYDSSKLASGVPSRFSGSGSGTDYTLTISSLQPEDFATYYCQQWSRNPPTFGGGTKVEIKGGSEGKSSGSGSESKSTGGSQVQLVQSGAEVKKPGSSVKVSCKASGYTFTRSTMHWVRQAPGQGLEWMGYINPSSAYTNYNQKFQGRVTLTADKSTSTAYMELSSLRSEDTAVYYCARPQVHYDYNGFPYWGQGTLVTVSS | 958 pM | – | – | – |

These reach a lower EC50 [1]. Values come first.

| EC50 [1] | % Retained 55° C. [2] | % Retained 60° C. [2] | % Retained 65° C. [2] | Binder |
| --- | --- | --- | --- | --- |
| 712 pM | – | – | – | CD3B1129 (scFv) scFv: QVQLVQSGAEVKKPGSSVKVSCKASGYTFTRSTMHWVRQAPGQGLEWMGYINPSSAYTNYNQKFQGRVTLTADKSTSTAYMELSSLRSEDTAVYYCARPQVHYDYNGFPYWGQGTLVTVSSGGSEGKSSGSGSESKSTGGSDIQLTQSPSSLSASVGDRVTITCSASSSVSYMNWYQQKPGTSPKRLIYDSSKLASGVPSRFSGSGSGTDYTLTISSLQPEDFATYYCQQWSRNPPTFGGGTKVEIK |
| ~437 pM | 10% | 2% | 3% | CD3B1128 (scFv, also called Murine LH; murine Cris-7 scFv (LH)) scFv: QVVLTQSPAIMSAFPGEKVTMTCSASSSVSYMNWYQQKSGTSPKRWIYDSSKLASGVPARFSGSGSGTSYSLTISSMETEDAATYYCQQWSRNPPTFGGGTKLQITGGSEGKSSGSGSESKSTGGSQVQLQQSGAELARPGASVKMSCKASGYTFTRSTMHWVKQRPGQGLEWIGYINPSSAYTNYNQKFKDKATLTADKSSSTAYMQLSSLTSEDSAVYYCASPQVHYDYNGFPYWGQGTLVTVSA |
| ~6.3 pM | – | – | – | CD3B1134 (scFv) scFv: DIQLTQSPSSLSASVGDRVTITCSASSSVSYMNWYQQKPGTSPKRLIYDSSKLASGVPSRFSGSGSGTDYTLTISSLQPEDFATYYCQQWSRNPPTFGGGTKVEIKGGSEGKSSGSGSESKSTGGSEVQLVQSGAEVKKPGESLRISCKASGYTFTRSTMHWVRQMPGKGLEWMGYINPSSAYTNYNPSFQGHVTLSADKSISTAYLQWSSLKASDTAMYYCARPQVHYDYNGFPYWGQGTLVTVSS |
| 746 pM | 90% | 11% | 1% | CD3B1130 (scFv, also called IGHV1-69*02-IGHJ1-01 / IGKV3-11*02-IGKJ4-01 grafted construct, HL) scFv: QVQLVQSGAEVKKPGSSVKVSCKASGYTFTRSTMHWVRQAPGQGLEWMGYINPSSAYTNYNQKFQGRVTLTADKSTSTAYMELSSLRSEDTAVYYCARPQVHYDYNGFPYWGQGTLVTVSSGGSEGKSSGSGSESKSTGGSEIVLTQSPATLSLSPGERATLSCSASSSVSYMNWYQQKPGTSPRRLIYDSSKLASGIPARFSGSGSGRDYTLTISSLEPEDFAVYYCQQWSRNPPTFGGGTKVEIK |
